Test: soluble on expression in E. coli; label from the status in PepcDB or PDB records

Row | Sequence | soluble on expression in E. coli
1 | EVQLQQSGAELVRPGTSVKLSCKASGYSFTNYWMNWLRQRPGQGLDWIGMIHPSDSETRLNQKFKDKATLTVDRSSSTAYIQLSSPTSEDSAVYYCARDDYDGAFWGQGTLVTVSAAKTTPPSVYPLAPGSAAQTNSMVTLGCLVKGYFPAPVTVTWNSGSLSSGVHTFPAVLQSDLYTLSSSVTVPSSTWPSETVTCNVAHPASSTKVDKKIVPRDC | soluble
2 | SSPGKPPRLVGGPMDASVEEEGVRRALDFAVGEYNKASNDMYHSRACQVVRARKQIVAGVNYFLDVELCRTTCTKTQPNLDNCPFHDQPHLKRKAFCSFQIYAVPWQGTMTLSKSTCQDA | soluble
3 | MGSDKIHHHHHHMLFSVVDDRSGVAYQEYHCVYGEDAETALRFLFNSMAPKADPSFPFQGRPKLIYLDNGPVAKRRVFQSVMRALGIEWQTHIPASKDGTRTTARSKGKVERPFRTVKEAHETLYHFHKPETEAQANEWLLRYLVRTYNQQTHRAEPLSRIEDWITHVPTEGIREMCSWDQFCRFAREPERRKVGPDARITTDGTAYELEPEMAGDYVVLLWGLFDDELHAEFDGERFGPHYPVSGPIPQHRYRAFKRSKADERSARIRSLADQLGLPIAALSGEDVRLEPGSADSTLPIQPFVFEPQESRIAAKLAIAEELAMPLAKLSMDDRAFIDQVLSETLATD | not soluble
4 | GAMKNSFDRLIDGLAKDYGMPGFPEKKHEHEVYCFEFKEVSIRIYQDKFKWVYFLSDIGVIDNLDSNACQSLLRLNEFNLRTPFFTVGLNEKKDGVVHTRIPLLNLDNVEMRRVFEALLNLSGEVKKTFGFV | soluble
5 | LPGRFQRSDVERVVTACSAALGLSSACLRALLVMVHATRPSDWRDEQRDAVCFMQQVQVAARLGVTPRALRYQEARLERLGLLRRNVAADGSRGRFGGGDLIQGISFAPLIEAFPSLLRIAEQLEAAERERQVLRRRVSAARRILSQTLTRLAALDKAVPGLTEVLASMPRRYDALDGSELGALLQRVDKAAREALRHLEVQQVSSGVPENSFRPHIQDTTQENPVCSGSSAIERTARKRADSIKPDAAPDGTASCYEKKHGLADRGFKPRYLDTFTPTQLYEAASPDMQMYLDAGRRSDSTLTAHDFIQAAIAILPALGVNASAWDEAADTMGDLPAALCVLVLDANRYRPVNPVWSPGGMLRAMTARARSGGLNLHGSLIALQRRAG | not soluble
6 | MGSSHHHHHHSSGLVPRGSEHLKNISPIDGRYKKACGELSAFFSEHALIKHRIIVEVRWLLFLNEEELFFEKVTDHSVEVLNQIATNITDSDIARVKAIEEETNHDVKAVEYFVKEKLKNSKREDLLKIKEYVHYLCTSEDINNVAYATCLKACLNDVVIPCLEKIMLKLKDLAVEYSHVPLLSRTHGQPASSTTFGKEMANFYARIHHHVGVIRRVKVCAKFNGAVGNFNAHKVASKDTDWVNTIGLFLKKHFNLTYSIYCTQIQDHDYICELCDGLARANGTLIDLCVDIWLYISNNLLKLKVKEKEVGSSTMPHKVNPIDFENAEGNLHIANAFFKLFSSKLPTSRLQRDLSDSTVLRNIGSSLAYCLIAYKSVLKGLNKIDIDRRNLEEELNQNWSTLAEPIQIVMKRHNYVDAYEELKQFTRGKVIDQKIMQEFIKTKCAFLPQDVVDQLLELTPATYTGYADYLAKNVERLSGERD | soluble
7 | MYDAALGRWHAVDPMSEKYYSWSPYTYCKNNPVLRIDLDGKDDYVISRSGRLFNETPIDKRGKGSTDNLYLSSDRSISVTVNQGLLGEMHSMQAKEQKENRVKKSYGSTQDLETAATVFKFAADHTTVEWKLDVYDDNGTRTAVVATDRDPYGVDNGVYAQNKLSVKGEKVIDIHSHLPGGTKGGAGNDFNLAKPQRKNAVYMKDNRVSTDKKDMIYEYTKNASRVNSIRVYDATDLLQYIKRK | not soluble
8 | MSKDDPINSIFFEHQEAALCAQHALNMLLQDALYKWQDLRDLAIQMDKMEQQILGNANPTPGRSENMNESGYFSIQVLEKALETFSLKLTNIENPAMVDYKNNPLTARAYICNLREHWFVLRKFGNQWFELNSVNRGPKLLSDTYVSMFLHQVSSEGYSIFVVQGVLPRSDADDLISLCPVVPPKVTPKKEQKLEKVMTKFFNTVGKRLGGGSGAPPDSQEEKDLAIAFAMSMETKDGSEVSRSSAEIDEENLRKAIELSQAPGPSEPAEIPLLTRSRSSTPPGASEPFSNAEQQRRDRQKFLERFEKKKEERNDEK | not soluble
9 | GEDFFFVVMRDISSKKILEREFSMNEQLFKDLFDRAVDGIVLFDKDGGFIDANLSFCKSFEINHNELSHLSLYEFIDSGSRKDFDNIWKALNRKGKAKGELPVKLRSGVQKLFEFTITSNII | not soluble
10 | MGSDKIHHHHHHMKVHLIGHASLFVETLDCNILMDPLLWNPGISEGMQDICPKRQVLHDQIPEFDILVISHQHIDHFNIRSLANLPKHVDVLIPKDQFLETCLRKLGYRHIYPLKDFNEVRIGSTRLVATRSENRVPEYGMIFADSDGVFWNQVDSIVNAQTINEVKSRYPQINFLLAPWQPLLQIQYQYNECVIFPYASYSHLLKIIGLTAPKAIAPGANGFKQINGSSWLNQIVFPVTREQFCHDVQQAYPTIQDRIFSFDPGDVITLNNGEVSHSPQKSTFVKKLADDSDSLYFSPVNTDSKLIDDNPEGYDIEQMKSVIEEEICIHLTKFFNDKKDSLFMEYGYWKAIYQLEVIFPTHSEAWYFDFSEHSIQCRRGKNPLANVFTLIAASSFYGLLKGIKGWDYANFGGYYRCFNKVYQATLYGIIRPFDDSNQGIPDPLSLKFPYKEVYERVRFYEIEKWGQVNDEQTIDKNSQNPMVIIGNTLIKPQHKVQCI | not soluble
